± gives the uncertainty stated by the source.
Experiment: amyloid nucleation score (Sup35N fusion, yeast selection) (log enrichment); library NNK3; higher = more nucleation; inactive = no reads after selection
In short: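 DiMSum was used to calculate nucleation scores as log enrichment of output over input reads, centred on the mode score of non-aggregating sequences. Sequences with fewer than 100 input reads were not scored. Input and output came from Illumina sequencing of plasmid inserts in psi-negative yeast expressing peptides of 20 random codons fused to Sup35N, induced 24 hours with 100 μM copper sulfate and then grown 7 days at 30°C on medium lacking adenine and uracil.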

Row | Substance | amyloid nucleation score
1 | ITNVWSVFKIRIGNCGFGAG | 1.9 ± 0.1
2 | LREPRGGSWRRLDCFKCRLG | inactive
3 | HAFYALDKKVPVTQLKFARQ | -0.315 ± 0.84
4 | YSESIFIV | inactive
5 | LNRLSCFSCPLFV | inactive
6 | VLVSVILYIYYDDCFYSWSF | inactive
7 | FSVPLVCDIYCLYTDVEYRH | 2.53 ± 0.059
8 | RLYVPLLVDVLWEKCKHSNV | inactive
9 | RGNIWIHKK | 0.404 ± 0.15
10 | RIHVSKLLTWTGSSLVVWSA | inactive
11 | CSFTARFLHTMSPKKFKLGN | inactive
12 | KISISD | inactive
13 | MSSGLTVSNVL | inactive
14 | IPVGIRSRFVLYSCGMTGVK | inactive
15 | TGWSWISLYWLCSNMVIVNR | inactive
16 | AFKWSRSCGMWLTDIGAWW | inactive
17 | STSYGLRIVSKNDDYLRTAR | 0.511 ± 0.19
18 | GIFKFMAV | inactive
19 | KEMGW | inactive
20 | SAGDTDRRPVFH | -0.058 ± 1
21 | SVRYTV | inactive
22 | RVLVWTFYEKAKNCAFCRGV | inactive
23 | VDVDCYLLSKNM | inactive
24 | MAFGWWLDSMLYFITDALVP | inactive

Row | Substance | amyloid nucleation score
25 | NIWRMYEIRSVSGKKLRVDI | inactive
26 | MVWWNPNSWNVMLSLIWCLV | 0.752 ± 0.14
27 | WYGITEIP | inactive
28 | RLPLLTTKSGMSDTYSAP | inactive
29 | LLANDSWF | inactive
30 | NRVSGALKPLVVS | inactive
31 | NDQKIPLARYLG | inactive
32 | ELLCSYTYKIGFQWFC | inactive
33 | DFYIGTGLISKVRLGHRCSC | -0.305 ± 0.44
34 | TKADEHYESIYTLCCHFVSP | inactive
35 | CLKFQSVY | inactive
36 | YSVCVNAWGLSTLSTLWCTY | inactive
37 | GDSSVTWI | inactive
38 | FGAAFQNYVKFPVPKMFTCH | inactive
39 | AMNNLLFTLYVF | inactive
40 | YDSKDF | inactive
41 | KAPDVLVNGRIL | inactive
42 | ARLVAGCVMCHGSLWEMIRE | 0.572 ± 0.28
43 | SCPLR | inactive
44 | VKEMFKF | inactive
45 | LYNILFWTPNFRFVSWYHCI | inactive
46 | RCYKMLDLSILDIRYIVMLR | inactive
47 | FYEHLVRSNFLSLRRMVRTV | inactive
48 | NDWRCKEVTSSDIWAFVYCS | 0.967 ± 0.12

Row | Substance | amyloid nucleation score
49 | FDVKDWPSNNWRSLGNSRVC | inactive
50 | SARGCTNSSSNGLGRGHQTG | inactive
51 | YRSKNFMIQRWTRVVLRAWM | inactive
52 | TSINFSMAIDLRSHQLERTV | 0.479 ± 0.31
53 | GNYVTVHIYVKAVFGNG | inactive
54 | LRCKKRLVRFLHVHEFAVEY | -0.211 ± 0.52
55 | CMNWCVSRMVNTIVIWCMAY | inactive
56 | RIVDGFLTW | inactive
57 | YFRSK | inactive
58 | TEMMTFGFSGVMFVRVMFWL | inactive
59 | MLIRYAVLALCSCGTNFTDL | inactive
60 | MYGEMYCRFCVVVVGWLQFV | inactive
61 | LTIVAYVVATYSFCWWISVG | inactive
62 | LGYDWRDVNNGK | inactive
63 | ITESIVQFLAFWVRDTDYVC | inactive
64 | GDGAYS | inactive
65 | HIVSRP | inactive
66 | RRSTQLKRQYKSL | inactive
67 | SGGKWFIFRCT | inactive
68 | MDLCMETGQYSLRNTVCAFL | inactive
69 | GRAPYMWC | -0.955 ± 2.4
70 | NTVNWSFFVMVLSFSSRETV | inactive
71 | QMFSLTFIVMFLFFPSRGCR | inactive
72 | ESMLIS | inactive

Row | Substance | amyloid nucleation score
73 | FGADSDQHLRRLLGAEGWCR | inactive
74 | RFNSWRSCIWLM | inactive
75 | GWAGGSLNARMSRWF | 0.881 ± 0.17
76 | RGSMRPPSVSQMQCRYKDRF | -0.663 ± 1.1
77 | CDFIHCLVCFLPIWKSCGTE | 0.732 ± 0.34
78 | WSWGTG | inactive
79 | ADKIRIRFY | inactive
80 | AWLSLVCVDVGTTPFSHNDR | inactive
81 | TNDAGHVWYSLCLRIFNTNV | inactive
82 | SRFEGLASDTDMYSRDSTWR | inactive
83 | VVMACGFLGKRGDSGCLLVM | inactive
84 | GADKFSMLRVYGICRLGSAC | -0.024 ± 0.93
85 | VMMDWILQIVAYSSDHTGSK | inactive
86 | GGTLFLYGLIHQHWFLRMHE | 1.05 ± 0.16
87 | HALGVSGRFDNNVVIFARGS | inactive
88 | DAAQCRSDNYALFELNSAHC | inactive
89 | EYHDALEYVVGDKAIFWSGD | inactive
90 | IPTIVPLAQLRVSVTSVWNL | inactive
91 | WKWVRRYVRATIRSYSKDLD | inactive
92 | LGASRGMFVKNLLIMASHSR | inactive
93 | SMCPLYFINHAIAVDAMKFF | inactive
94 | ELIWAEGYRKSCKLGPVIS | inactive
95 | LRQSTSMPCNFCIYLEERKD | 1.43 ± 0.073
96 | WYRLLYKVEYNFKGWSVFVR | inactive

Row | Substance | amyloid nucleation score
97 | NIVSFVGDVFHSLLVG | inactive
98 | VDEIWMGGLFCILYVSEVHK | inactive
99 | RFVYRVNNRSKVLSEARMCI | inactive
100 | IIFDR | inactive
101 | VLPNIQFFYCMCWVMLYLPF | inactive
102 | MSKYVGRIGCLWGNSASRAR | inactive
103 | TTILLTFDTGTIS | inactive
104 | KVIKDNLEVCFLKSMWC | inactive
105 | WFPSKYIATMFCLQVFLVKP | inactive
106 | CSEQEACISK | inactive
107 | DNFVY | inactive
108 | ILLWFSTVNWSFANEPGQIL | inactive
109 | VLIMPA | inactive
110 | LIMGTVVLIL | 1.54 ± 0.073
111 | YIYEEASK | inactive
112 | RLMLLVTPAISFMSF | inactive
113 | ESSFSGLYYDSAM | inactive
114 | STICDFNLICSAFANSVRLR | inactive
115 | SGASYVQS | inactive
116 | ILDTEHYLMYKVSPAVASLS | inactive
117 | FCSFEVRGCY | 0.346 ± 0.2
118 | VYIRSFRSCTWRSLPMRIRY | inactive
119 | LPHPALKDFRISVRQLIWVR | 1.04 ± 0.17
120 | GNHQSRYSFVP | inactive

Row | Substance | amyloid nucleation score
121 | KRDWHLVTMG | -0.134 ± 0.32
122 | TGRAFIIPVHAFRYDSVVGV | inactive
123 | FSFTIDAYRHRTTSVLMRMS | inactive
124 | DVPGIGCEGKALRRLGFLLR | inactive
125 | LKVMWLWSAKINYMSIVENL | inactive
126 | VSLKVIDKNFNFHVMYGCID | inactive
127 | YLPSSSEFR | inactive
128 | LLYENTVSSRGTVLRDHLS | 0.456 ± 0.36
129 | LCAYNSTWSACNWGFIHNSL | 2.58 ± 0.051
130 | LWVRIKARTFNFS | 0.228 ± 0.19
131 | VSGLDWFM | inactive
132 | ITMTCFCIMGAESISNLPMW | 1.33 ± 0.11
133 | ISFSLH | inactive
134 | YLPFFEWRVQGRVFEVSMYY | inactive
135 | IALLWQAHLWRHDWKFYFDS | inactive
136 | RHGFWSVSFVSRQFSNILSC | inactive
137 | INYIIVSGSAGIRMTGK | 2.52 ± 0.064
138 | ICSYTSVYSRKW | 0.404 ± 0.35
139 | FPDIDLLLLWTHQRDRRSWF | 0.018 ± 0.45
140 | IMKKESVAHHVNIGIHASLT | -0.101 ± 1.1
141 | DLHLLYKYILFAKLLV | inactive
142 | GWVYDMVYYRSVKMGCAKRS | 0.389 ± 0.22
143 | FWRYAYNCYCGYSCDQIGDS | inactive
144 | GYICLGPPAVTVIYVRICRQ | -0.495 ± 1

Row | Substance | amyloid nucleation score
145 | FWHENSIAELWICKTLLGKF | inactive
146 | RIVFSKVMLVEIRTSLWFCT | inactive
147 | DFIDLLLSSDEIMKS | inactive
148 | DPGHRGLTDFYSMFRL | inactive
149 | NEGSNATC | 0.713 ± 0.13
150 | GPFQLA | inactive
151 | CMLAQRRVTPRRYRLVSSTI | inactive
152 | IYNVFDDEDMICTSLVVSRS | inactive
153 | VISLRLVLNWNVTGVSLLGW | 0.611 ± 0.16
154 | ILKKRFRMVPLK | inactive
155 | VTLTN | inactive
156 | VRVLFGPFYYVFGSYLIGLV | inactive
157 | NYSRFGNKKFYHP | inactive
158 | KKYVVFNGCSPYM | inactive
159 | LDLNLRVRVLFKFTTGLTFF | inactive
160 | HRTLVMGP | inactive
161 | SNDIRF | inactive
162 | SGVMNWKT | inactive

Reference: the supplement of paper PMC12042874
